Laboratory results reported in patent US6617114B1, “Identification of drug complementary combinatorial libraries” (priority 1996, dated 2003).
Where no end group is shown, it is not given here.

Key:
estrogen receptor α (ER) = estrogen receptor α (ER) (Homo sapiens, UniProt P03372); experiment: Phage ELISA competition on immobilized estrogen receptor
[1] = target: T1, GST portion of the GSTUL44 fusion (Schistosoma japonicum, UniProt P08515); experiment: Phage ELISA competition on immobilized GSTUL44, GST-specific phage; type: binding; settings: various concentrations of competitor
T1 construct: made in house; host or cells: E. coli DH5aF′
T1 sequence (P08515 whole entry, the tested form may be a part): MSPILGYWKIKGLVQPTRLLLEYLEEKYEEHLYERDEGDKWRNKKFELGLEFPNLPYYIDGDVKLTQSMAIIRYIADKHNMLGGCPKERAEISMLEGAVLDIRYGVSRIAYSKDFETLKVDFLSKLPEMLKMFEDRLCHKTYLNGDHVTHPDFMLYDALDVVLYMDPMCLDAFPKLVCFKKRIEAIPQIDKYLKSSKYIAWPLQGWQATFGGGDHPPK
Protocol: (§1) To map the. binding site for the UL44 specific phage displaying the constrained peptide from the X10C library, we competed this phage for binding with linear double stranded DNA. To show the specificity of binding for the substrates and the phage, both phage were competed with both substrates. Microtiter plates were coated with GSTUL44 protein and blocked as described above. Phage specific for either the GST portion or the UL44 portion of the fusion were then added to separate wells and at the same time various concentrations of either GSH or DNA were added. It is important to keep in mind that these phage were isolated from the same affinity selection run.

UL44 = target: T2, UL44 (Human cytomegalovirus, UniProt P16790); experiment: Phage ELISA competition on immobilized GSTUL44, UL44-specific phage; type: binding; settings: various concentrations of competitor
T2 construct: made in house; host or cells: E. coli DH5aF′
T2 sequence (P16790 whole entry): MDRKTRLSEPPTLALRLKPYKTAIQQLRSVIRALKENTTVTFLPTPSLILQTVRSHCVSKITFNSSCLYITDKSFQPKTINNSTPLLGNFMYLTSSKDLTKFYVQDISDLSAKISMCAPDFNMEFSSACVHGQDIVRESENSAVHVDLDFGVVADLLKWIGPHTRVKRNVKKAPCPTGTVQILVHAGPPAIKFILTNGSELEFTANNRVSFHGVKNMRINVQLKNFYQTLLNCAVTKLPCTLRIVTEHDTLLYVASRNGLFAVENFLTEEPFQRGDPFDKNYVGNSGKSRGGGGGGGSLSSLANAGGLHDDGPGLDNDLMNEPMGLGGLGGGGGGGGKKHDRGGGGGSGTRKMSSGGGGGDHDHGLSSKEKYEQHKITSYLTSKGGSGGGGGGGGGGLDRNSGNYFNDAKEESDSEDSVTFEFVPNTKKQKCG
Protocol: as §1

[2] = target: T3, Agrobacterium faecalis beta-glucosidase (Agrobacterium sp., UniProt P12614); experiment: Phage ELISA competition with conduritol on beta-glucosidase; type: binding; settings: 3 mM conduritol for 3 hours
T3 sequence (P12614 1-459): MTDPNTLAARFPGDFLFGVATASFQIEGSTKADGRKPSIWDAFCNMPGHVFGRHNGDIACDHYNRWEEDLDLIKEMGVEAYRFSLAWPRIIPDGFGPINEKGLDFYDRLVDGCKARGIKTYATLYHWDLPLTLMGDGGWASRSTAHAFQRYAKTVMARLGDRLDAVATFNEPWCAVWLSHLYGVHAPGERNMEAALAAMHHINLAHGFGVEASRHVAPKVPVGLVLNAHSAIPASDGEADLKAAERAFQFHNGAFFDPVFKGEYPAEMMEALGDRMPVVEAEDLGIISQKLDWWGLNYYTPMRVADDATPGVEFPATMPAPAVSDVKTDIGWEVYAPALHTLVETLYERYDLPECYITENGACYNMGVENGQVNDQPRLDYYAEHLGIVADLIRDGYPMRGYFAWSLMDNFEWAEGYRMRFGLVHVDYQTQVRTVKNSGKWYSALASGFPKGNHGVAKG
Protocol: For the first method of affinity purification, phage libraries were mixed with 1 μg biotinylated target protein in solution and allowed to incubate at room temperature for 4 hours. Phage:protein complexes were then captured on streptavidin paramagnetic beads (Promega, cat#Z5482) by adding beads and incubating the tubes while rotating at room temperature for 30 minutes. The complexes were then drawn to the sides of the tubes using a magnet and the beads were washed with TBST containing 5 mM biotin. Beads were washed once in the first round of panning and 3 times for each additional round. Phage were eluted and amplified using the sequential procedure described in example 3. In the second method of affinity purification, phage libraries were mixed with 1 μg biotinylated target protein that was first captured on streptavidin paramagnetic beads. After the protein was bound, the beads were washed once with TBST containing 5 mM biotin to block the remaining binding sites on streptavidin. The libraries and beads were then mixed at room temperature on a rotator for 4 hours and washed, eluted and amplified as above. Phage ELISAs were carried out by first coating a microtiter plate (Immulon4, Dynex) with 1 μg streptavidin, followed by blocking with BSA. Biotinylated protein was then added to the wells and allowed to bind to the streptavidin for 1 hour. […]

GST-UL44 = target: T4, GST-UL44 (Human cytomegalovirus, UniProt P16790); experiment: Enzyme Linked Spectrophotometric Assay (ELSA) for CMV UL44; type: binding
T4 construct: made in house; host or cells: E. coli DH5aF′
T4 sequence (P16790 whole entry): as the sequence (P16790 whole entry) above
Protocol: IMMULON-4 (cat.#011-010-3855) 96-well microtitration test plates were purchased from Dynatech. Bovine serum, albumin (BSA) (A2153), Streptavidin alkaline phosphatase (SA-AP) (S2890), TWEEN-20 detergent (P1379), and p-nitrophenyl phosphate tablets (pNPP) (N-1891, N-2770) were purchased from Sigma. Phosphate buffered saline (PBS) (21600-010) was obtained from Gibco-BRL. Ultrapure glycerol (#16374) was purchased from USB. Biotinylated surrogate ligands were prepared as a 1 mM stock solution in the appropriate solvent (H2O or 10% acetonitrile). SA-AP was prepared as a 1 mg/ml stock solution in PBS containing 10% glycerol and stored in aliquots at −80° C.
Target protein was immobilized in microtiter wells by incubating 0.5-2.0 μg per well in 100 μl of 0.1 M NaHCO3 overnight at 4° C. […] During the 1 hour blocking period, the SA-AP:surrogate ligand conjugate was prepared by mixing 2 μg SA-AP and 50 pmol biotinylated surrogate ligand for each well of target protein. (This corresponds to a 1:1 ratio of biotinylated peptide to biotin binding sites.) The mixture was incubated at room temperature for 15-20 minutes and then diluted with Tris-buffered saline-TWEEN-20 detergent (TBST) 10 mM Tris-HCl, pH 8.0, 150 mM NaCl, 0.05% TWEEN-20 detergent such that there was 100 μl of conjugate per well. […]
After blocking, the wells were washed once with 200 μl TBST. […] The absorbance was read at 405 nm.

[3] = target: T5, Yeast alcohol dehydrogenase (yeast), P00330; experiment: cross reactivity phage ELISA
T5 chain: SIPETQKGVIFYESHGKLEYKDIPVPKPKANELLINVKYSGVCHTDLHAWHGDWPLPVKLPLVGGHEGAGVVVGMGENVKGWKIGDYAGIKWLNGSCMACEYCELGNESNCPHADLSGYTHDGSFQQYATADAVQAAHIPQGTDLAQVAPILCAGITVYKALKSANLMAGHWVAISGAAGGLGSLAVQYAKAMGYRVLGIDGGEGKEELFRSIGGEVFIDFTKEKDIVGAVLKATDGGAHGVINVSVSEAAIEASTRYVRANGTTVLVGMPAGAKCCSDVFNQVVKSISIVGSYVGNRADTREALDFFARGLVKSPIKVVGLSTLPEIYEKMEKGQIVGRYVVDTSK

[4] = target: T6, carboxypeptidase B from pig pancreas (pig), P09955; experiment: cross reactivity phage ELISA
T6 chain: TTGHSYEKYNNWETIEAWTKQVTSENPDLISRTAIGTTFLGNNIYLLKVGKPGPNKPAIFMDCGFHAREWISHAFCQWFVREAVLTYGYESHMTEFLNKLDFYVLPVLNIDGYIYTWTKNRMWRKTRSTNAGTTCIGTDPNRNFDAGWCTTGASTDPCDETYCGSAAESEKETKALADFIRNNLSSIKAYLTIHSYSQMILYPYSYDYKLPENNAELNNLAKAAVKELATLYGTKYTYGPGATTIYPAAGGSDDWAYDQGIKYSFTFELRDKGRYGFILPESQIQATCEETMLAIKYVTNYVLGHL

[5] = target: T7, E. coli proline tRNA synthetase (E. coli), P16659; experiment: tRNA charging (enzyme activity) assay, competitive in respect to proline
T7 chain: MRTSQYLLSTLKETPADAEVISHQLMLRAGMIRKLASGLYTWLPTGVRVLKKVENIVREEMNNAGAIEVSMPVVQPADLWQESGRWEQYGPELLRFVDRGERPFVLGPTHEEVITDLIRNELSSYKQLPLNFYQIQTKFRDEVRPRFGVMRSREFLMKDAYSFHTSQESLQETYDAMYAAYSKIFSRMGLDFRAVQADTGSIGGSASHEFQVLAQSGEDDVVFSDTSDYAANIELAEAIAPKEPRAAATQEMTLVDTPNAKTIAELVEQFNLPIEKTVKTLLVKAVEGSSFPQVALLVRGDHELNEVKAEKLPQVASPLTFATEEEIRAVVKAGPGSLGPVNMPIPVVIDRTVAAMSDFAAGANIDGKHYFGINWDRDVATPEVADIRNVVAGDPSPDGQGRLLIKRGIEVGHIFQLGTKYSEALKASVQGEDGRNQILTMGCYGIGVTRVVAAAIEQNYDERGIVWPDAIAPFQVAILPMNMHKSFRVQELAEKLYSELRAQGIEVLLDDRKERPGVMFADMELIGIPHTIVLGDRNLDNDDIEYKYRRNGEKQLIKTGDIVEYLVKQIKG

[6] = target: T7, E. coli proline tRNA synthetase (E. …); experiment: cell-based or functional assay

Chain of estrogen receptor α (ER) (P03372 whole entry, the tested form may be a part): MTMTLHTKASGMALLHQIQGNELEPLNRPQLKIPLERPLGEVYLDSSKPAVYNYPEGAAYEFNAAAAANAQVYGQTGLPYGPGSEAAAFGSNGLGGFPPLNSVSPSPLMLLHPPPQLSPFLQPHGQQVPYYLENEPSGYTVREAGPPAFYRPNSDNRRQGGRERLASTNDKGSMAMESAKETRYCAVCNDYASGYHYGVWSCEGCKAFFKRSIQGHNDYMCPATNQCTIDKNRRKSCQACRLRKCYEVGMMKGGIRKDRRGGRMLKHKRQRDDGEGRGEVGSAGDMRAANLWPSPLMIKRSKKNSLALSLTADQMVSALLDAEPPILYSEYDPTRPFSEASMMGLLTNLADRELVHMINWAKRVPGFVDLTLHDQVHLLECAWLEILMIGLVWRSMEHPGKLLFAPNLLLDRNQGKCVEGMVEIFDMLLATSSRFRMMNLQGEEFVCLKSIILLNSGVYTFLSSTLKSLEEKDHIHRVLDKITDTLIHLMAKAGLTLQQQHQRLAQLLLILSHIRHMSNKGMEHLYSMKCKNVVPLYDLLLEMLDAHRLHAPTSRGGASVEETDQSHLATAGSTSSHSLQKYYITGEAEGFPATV

For 4-hydroxytamoxifen [reference compound], the “competition with ER binding phage selected in the absence of estradiol” value (estrogen receptor α (ER)) was “does not inhibit”.

For N[C@@H](CCC(=O)N[C@@H](CS)C(=O)NCC(=O)O)C(=O)O [GSH, glutathione], the “binding of GST specific phage to GSTUL44 in presence of competitor” value [1] was “competed in a dose dependent fashion” and the “binding of UL44 specific phage (X10C peptide) to GSTUL44 in presence of competitor” value (UL44) was “no effect”.

O[C@@H]1[C@H](O)[C@@H](O)C=C[C@H]1O [conduritol] was tested, and the “binding of phage from group 1 after conduritol” value [2] was “unaffected” and the “binding of phage from group 2 after conduritol” value [2] was “inhibited”.

In the case of “Biotin-H-Ser-Gly-Ser-Gly-Glu-His-Val-Cys-Ser-Trp-Gly-Trp-Gly-Arg-Cys-OH [UL44 BioKey]”, the “specificity of binding of biotinylated peptide” value (GST-UL44; tested on streptavidin, GST-UL44, GST, GST-SrcSH3) is reported as “binds specifically to UL44”.

“H-Ser-Gly-Ser-Gly-Glu-His-Val-Cys-Ser-Trp-Gly-Trp-Gly-Arg-Cys-OH (H-SGSGEHVCSWGWGRC-OH; cysteine pairing not given here) [non-biotinylated UL44 peptide]” was tested, and the “competition of biotinylated UL44 peptide binding” value (GST-UL44; self-competition) was “competed specifically”.

In the case of “W L D G L P L Y H E V (WLDGLPLYHEV) [Peptide 5]”, the “effect of antiestrogens on phage binding to ER” value (estrogen receptor α (ER); phage selected with estradiol, 100 μM tamoxifen, nafoxidine, clomiphene) is reported as “S S L T S R D F G S W Y A S R * (SEQ ID NO:156)”.

SRQVEVFKPWPVYSR (modifications not checked) was tested, and the fold ELISA signal on the specific target vs any other target tested [3] was over 10 fold.

SVSVGMKPSPRP (modifications not checked) gave a fold ELISA signal on the specific target vs any other target tested [3] of over 10 fold.

SSFRELKPGWWSYSR (modifications not checked) showed a fold ELISA signal on the specific target vs any other target tested [4] of over 10 fold.

Work on SRVCAIWPDLDGCSR (not fully specified; cysteine pairing not given here) [non-biotinylated ProRS peptide] yielded a Ki [5] of over 500 µM and a charging assay (enzymatic activity of the target) [6] of 50 % inhibition.

In the case of SSNYWWQSPVLSRHSR (modifications not checked), the fold ELISA signal on the specific target vs any other target tested [3] is reported as over 10 fold.

In the case of SSWGDYFNWRDGLSR (modifications not checked), the fold ELISA signal on the specific target vs any other target tested [4] is reported as over 10 fold.

SRLLEVSPGWWQMSR (modifications not checked) showed a fold ELISA signal on the specific target vs any other target tested [4] of over 10 fold.

SSSFKPWPIYLGSSR (modifications not checked) was tested, and the fold ELISA signal on the specific target vs any other target tested [3] was over 10 fold.

SSWQGNVLLGNWISR (modifications not checked) was tested, and the fold ELISA signal on the specific target vs any other target tested [3] was over 10 fold.

In the case of SSLLNESRLQWSTSR (modifications not checked), the fold ELISA signal on the specific target vs any other target tested [3] is reported as over 10 fold.
